Measurements as given in patent US20110236380A1 (published 2011).

Columns and labels:
[1] = molecular target: rhesus IL-13 (rhesus, UniProt Q864V6 19-132, limits assumed); test: cell-based or functional assay
[2] = molecular target: T1, Cynomolgus monkey IL-13 (cynomolgus monkey, UniProt Q0PW92 21-132); test: cell-based or functional assay
[3] = molecular target: T2, human IL-13 (human, UniProt P35225 35-146, limits assumed); test: cell-based or functional assay
[4] = molecular target: T1, Cynomolgus monkey IL-13; test: Biacore SPR, biotinylated IL-13 on streptavidin chip, dAb as analyte, 1:1 model, 25 C
Experimental: (§1) The binding affinities of purified DOM10 dAbs to both human and cyno IL-13 were assessed by Biacore analysis. Analysis was carried out using biotinylated IL-13. About 150 RU of biotinylated IL-13 was coated to a streptavidin (SA) chip (Biacore, GE healthcare). The surface was regenerated back to baseline using 0.1 M Glycine pH 2. dAbs were passed over this surface at defined concentrations using a flow rate of 50 μl/min. Data were analyzed using BIAevaluation software (Biacore, GE Healthcare) and fitted to the 1:1 model of binding. The binding data fitted well to the 1:1 model for all DOM10 dAbs. Biacore runs were carried out at 25° C.

[5] = molecular target: T2, human IL-13; test: as above
Experimental: as §1

[6] = molecular target: T2, human IL-13; test: DOM10 sandwich ELISA: dAb dilution series mixed with 150 pg/ml human IL-13, loss of IL-13 detection by the kit antibodies
Experimental: dAbs were also tested in DOM10 ELISA to assess the potency against human IL-13 and cell based HEK Blue-STAT6 (HEK STAT) assays to assess the potency against human, cyno and Rhesus IL-13. DOM10 ELISA measures the ability of DOM10 dAbs to bind IL-13 and prevent its binding to an IL-13 detection antibody. A MAXISORP™ plate (high protein binding ELISA plate, Nunc, Denmark) is coated overnight with 2.5 μg/ml coating antibody (Module Set, Bender MedSystems, Vienna, Austria), then washed once with 0.1% (v/v) Tween 20 in PBS before blocking with 0.5% (w/v) BSA 0.05% (v/v) Tween 20 in PBS for 2 hours at room temperature. The plate is washed twice as previously detailed before the addition of 150 pg/ml IL-13 (GSK) mixed with a dilution series of DOM10 dAb (i.e., an anti-IL-13 dAb) and incubated for 1 hour. The plate is washed twice before binding of IL-13 to the capture antibody is detected using biotin conjugated detection antibody (Module Set, Bender Medsystems), followed by peroxidase labelled Streptavidin (Module Set, Bender MedSystems). Finally the plate is washed three times before incubation with TMB substrate (KPL, Gaithersburg, USA), and the reaction stopped by the addition of HCl and the absorbance read at 450 nm. Anti-IL-13 dAb activity causes a decrease in IL-13 binding and therefore a decrease in absorbance compared with the IL-13 only control.

T1 sequence (Q0PW92 entry or part of it): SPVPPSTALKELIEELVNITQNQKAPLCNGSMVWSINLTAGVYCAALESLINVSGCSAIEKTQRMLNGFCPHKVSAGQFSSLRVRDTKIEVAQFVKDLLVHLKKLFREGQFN
Chain of rhesus IL-13 (Q864V6 19-132 limits assumed): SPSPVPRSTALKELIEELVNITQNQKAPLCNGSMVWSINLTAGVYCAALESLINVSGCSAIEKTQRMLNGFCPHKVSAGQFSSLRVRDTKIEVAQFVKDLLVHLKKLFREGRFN
T2 sequence (P35225 35-146 limits assumed): as the sequence (Q0PW92 entry or part of it) above, with S1G, K10R, V42M, N67S, R83H, V100L counted along it

| Binder | HEK assay Rhesus EC50 [1] | HEK assay Cyno EC50 [2] | HEK assay Human EC50 [3] | Kd [4] | Kd [5] | EC50 [6] |
| --- | --- | --- | --- | --- | --- | --- |
| DOM10-53-567 (other) VH: GVQLLESGGGLVQPGGSLRLSCAASGFVFAWYDMGWVRQAPGKGLEWVSSIDWHGEVTYYADSVKGRFTISRDNSKNTLYLQMNSLRAEDTAVYYCATAEDEPGYDYWGQGTLVTVSS | 2.8 nM | 5.1 nM | 0.31 nM | 2.6 nM | 0.072 nM | 0.021 nM |
| DOM10-53-474 (other, Anti-IL-13 immunoglobulin single variable domain (dAb), monomer) VH: GVQLLESGGGLVQPGGSLRLSCAASGFTFAWYDMGWVRQAPGKGLEWVSSIDWHGEVTYYADSVKGRFTISRDNSKNTLYLQMNSLRAEDTAVYYCATAEDEPGYDYWGQGTLVTVSS | 30.2 nM | 30.1 nM | 2 nM | 9.3 nM | 0.259 nM | 0.217 nM |
| DOM10-53-546 (other) VH: GVQLLESGGGLVQPGGSLRLSCAASGFVFPWYDMGWVRQAPGKGLEWVSSIDWKGGKTYYADSVKGRFTISRDNSKNTLYLQMNSLRAEDTAVYYCATAEDEPGYDYWGQGTLVTVSS | 11.4 nM | 5.9 nM | 1 nM | 2.1 nM | 0.094 nM | 0.125 nM |
| DOM10-53-568 (other) VH: GVQLLESGGGLVQPGGSLRLSCAASGFVFAWYDMGWVRQAPGKGLEWVSSIDWHGKITYYADSVKGRFTISRDNSKNTLYLQMNSLRAEDTAVYYCATAEDEPGYDYWGQGTLVTVSS | 8.1 nM | 8.8 nM | 0.62 nM | 1.6 nM | 0.07 nM |  |
| DOM10-53-616 (other) VH: GVQLLESGGGLVQPGGSLRLSCAASGFVFPWYDMGWVRQAPGKGLEWVSSIDWHGKITYYADSVKGRFTISRDNSKNTLYLQMNSLRAEDTAVYYCATAEDEPGYDYWGQGTLVTVSS | 7.6 nM | 5.9 nM | 2.9 nM | 3.2 nM | 0.13 nM | 0.048 nM |
